{
  "source": "paper PMC4411306",
  "about": "“Osmosensing and scaffolding functions of the oligomeric four-transmembrane domain osmosensor Sho1” (Nature Communications, 2015)",
  "proteins": {"B1": {"name": "HA-Sho1* T66C I94C (natural protein, Saccharomyces cerevisiae, UniProt P40073 1-367, looked up)", "chain": "MSISSKIRPTPRKPSRMATDHSFKMKKFYADPFAISSISLAIVSWVIAIGGSISSASTNESFPRFCWWGIVYQFLIISSLMLFYSFDLVDHYRCFITTSIAVAFVYNTNSATNLVYADGPKKAAASAGVILLSIINLIWILYYGGDNASPTNRWIDSFSIKGIRPSPLENSLHRARRRGNRNTTPYQNNVYNDAIRDSGYATQFDGYPQQQPSHTNYVSSTALAGFENTQPNTSEAVNLHLNTLQQRINSASNAKETNDNSNNQTNTNIGNTFDTDFSNGNTETTMGDTLGLYSDIGDDNFIYKAKALYPYDADDDDAYEISFEQNEILQVSDIEGRWWKARRANGETGIIPSNYVQLIDGPEEMHR", "notes": "Sho1, S. cerevisiae, Cys-less (C78S C85S) with Cys in TM2 and TM3; source: S. cerevisiae KT079 (sho1Δ), GAL1 promoter, in membrane fraction; not shown: HA, N-terminal, kept"}, "B2": {"name": "HA-Sho1* G50C A124C (natural protein, Saccharomyces cerevisiae, UniProt P40073 1-367, looked up)", "chain": "B1 chain with G50C, C66T, C94I, A124C", "notes": "Sho1, S. cerevisiae, Cys-less (C78S C85S) with Cys in TM1 and TM4; also called G/C A/C; source: S. cerevisiae KT079 (sho1Δ), GAL1 promoter, in membrane fraction; not shown: HA, N-terminal, kept"}, "B3": {"name": "HA-Sho1* T66C T112C (natural protein, Saccharomyces cerevisiae, UniProt P40073 1-367, looked up)", "chain": "B1 chain with C94I, T112C", "notes": "Sho1, S. cerevisiae, Cys-less (C78S C85S) with Cys in TM2 and TM3; also called T/C T/C; source: S. cerevisiae KT079 (sho1Δ), GAL1 promoter, in membrane fraction; not shown: HA, N-terminal, kept"}, "B4": {"name": "HA-Sho1* I94C T112C (natural protein, Saccharomyces cerevisiae, UniProt P40073 1-367, looked up)", "chain": "B1 chain with C66T, T112C", "notes": "Sho1, S. cerevisiae, Cys-less (C78S C85S) with two Cys in TM3; source: S. cerevisiae KT079 (sho1Δ), GAL1 promoter, in membrane fraction; not shown: HA, N-terminal, kept"}, "B5": {"name": "HA-Sho1* I53C (natural protein, Saccharomyces cerevisiae, UniProt P40073 1-367, looked up)", "chain": "B1 chain with I53C, C66T, C94I", "notes": "Sho1, S. cerevisiae, Cys-less (C78S C85S) with a single Cys; source: S. cerevisiae KT079 (sho1Δ), GAL1 promoter, in membrane fraction; not shown: HA, N-terminal, kept"}, "B6": {"name": "HA-Sho1* S54C (natural protein, Saccharomyces cerevisiae, UniProt P40073 1-367, looked up)", "chain": "B1 chain with S54C, C66T, C94I", "notes": "as for B5"}, "B7": {"name": "HA-Sho1* V105C (natural protein, Saccharomyces cerevisiae, UniProt P40073 1-367, looked up)", "chain": "B1 chain with C66T, C94I, V105C", "notes": "as for B5"}, "B8": {"name": "HA-Sho1* A123C (natural protein, Saccharomyces cerevisiae, UniProt P40073 1-367, looked up)", "chain": "B1 chain with C66T, C94I, A123C", "notes": "as for B5"}, "B9": {"name": "HA-Sho1* N109C (natural protein, Saccharomyces cerevisiae, UniProt P40073 1-367, looked up)", "chain": "B1 chain with C66T, C94I, N109C", "notes": "as for B5"}, "B10": {"name": "HA-Sho1*-A124C (natural protein, Saccharomyces cerevisiae, UniProt P40073 1-367, looked up)", "chain": "B1 chain with C66T, C94I, A124C", "notes": "Sho1, S. cerevisiae, Cys-less (C78S C85S) with a single Cys in TM4; source: S. cerevisiae KT079 (sho1Δ), GAL1 promoter, in membrane fraction; S. cerevisiae KY590-1, GAL1 promoter, in intact cells, then lysate; not shown: HA, N-terminal, kept"}, "B11": {"name": "HA-Sho1* G50C (natural protein, Saccharomyces cerevisiae, UniProt P40073 1-367, looked up)", "chain": "B1 chain with G50C, C66T, C94I", "notes": "Sho1, S. cerevisiae, Cys-less (C78S C85S) with a single Cys in TM1; source: S. cerevisiae KT079 (sho1Δ), GAL1 promoter, in membrane fraction; in intact cells; not shown: HA, N-terminal, kept"}, "B12": {"name": "HA-Sho1* T66C (natural protein, Saccharomyces cerevisiae, UniProt P40073 1-367, looked up)", "chain": "B1 chain with C94I", "notes": "Sho1, S. cerevisiae, Cys-less (C78S C85S) with a single Cys in TM2; also called Sho1-FL-T66C; source: S. cerevisiae KT079 (sho1Δ), GAL1 promoter, in membrane fraction; not shown: HA, N-terminal, kept"}, "B13": {"name": "HA-Sho1* T112C (natural protein, Saccharomyces cerevisiae, UniProt P40073 1-367, looked up)", "chain": "B1 chain with C66T, C94I, T112C", "notes": "Sho1, S. cerevisiae, Cys-less (C78S C85S) with a single Cys in TM3; source: S. cerevisiae KT079 (sho1Δ), GAL1 promoter, in membrane fraction; not shown: HA, N-terminal, kept"}},
  "note": "Changes are numbered by the printed parent chain. In names and notes the source's numbering stands.",
  "data": [
    {"target": "the molecule itself", "assay": "cross-linking; detergent-free membrane fraction of sho1Δ cells expressing a Cys mutant of HA-Sho1*; 0.2 mM bifunctional thiol crosslinker (o-PDM, p-PDM or BMH), 20 min, 25 °C; SDS–PAGE, anti-HA blot", "values": [
      {"protein": "B1", "stoichiometry N": 3},
      {"protein": "B2", "stoichiometry N": 2},
      {"protein": "B3", "stoichiometry N": 3},
      {"protein": "B4", "stoichiometry N": 3}
    ]},
    {"target": "the molecule itself", "assay": "cross-linking; spontaneous disulfide bond formation: membrane fractions without chemical crosslinker, SDS–PAGE without 2-ME, anti-HA blot", "values": [
      {"protein": "B5", "stoichiometry N": 2},
      {"protein": "B6", "stoichiometry N": 2},
      {"protein": "B7", "stoichiometry N": 2},
      {"protein": "B8", "stoichiometry N": 2},
      {"protein": "B9", "stoichiometry N": 2}
    ]},
    {"target": "the molecule itself", "assay": "cross-linking; membrane fraction of cells expressing a single-Cys mutant of HA-Sho1*; homo-trifunctional crosslinker TMEA; SDS–PAGE, anti-HA blot", "values": [
      {"protein": "B10", "stoichiometry N": 2},
      {"protein": "B11", "stoichiometry N": 2},
      {"protein": "B12", "stoichiometry N": 3},
      {"protein": "B13", "stoichiometry N": 3}
    ]}
  ]
}
